Assay results from article PMC3778016, “Tracking of Chromosome and Replisome Dynamics in Myxococcus xanthus Reveals a Novel Chromosome Arrangement”.

T1: His6-ParB (Myxococcus xanthus DK1622, UniProt Q1CVJ4 1-296)
T1 sequence: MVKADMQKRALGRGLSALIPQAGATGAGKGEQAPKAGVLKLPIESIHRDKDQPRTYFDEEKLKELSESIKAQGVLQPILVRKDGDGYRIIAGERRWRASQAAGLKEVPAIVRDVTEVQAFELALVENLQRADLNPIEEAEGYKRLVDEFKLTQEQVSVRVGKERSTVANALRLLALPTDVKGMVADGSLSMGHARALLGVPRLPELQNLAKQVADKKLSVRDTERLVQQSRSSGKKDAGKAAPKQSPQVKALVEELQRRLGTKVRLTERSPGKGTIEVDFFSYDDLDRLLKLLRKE


How the values were obtained:
[1] = biological target: T1, His6-ParB; assay: EMSA; 100 nM DNA, 0.1-6 uM His6-ParB, 5 uM pBluescript II SK- competitor, 5 mM Mg2+; 38 mM Hepes/NaOH pH 7.2, 38 mM NaCl, 5 mM MgCl2, 7% glycerol, 1 mM beta-mercaptoethanol, 20 min at 30 C; 6% PAGE at 4 C in 1xTBE + 5 mM MgCl2; conditions: protein: recombinant; tags: N-terminal His6 (pET45b+); chain copies: 2; blunt
[2] = biological target: T1, His6-ParB; assay: as above; conditions: protein: recombinant; tags: N-terminal His6 (pET45b+); chain copies: 2; blunt; remark: listed apart in the source

Binder	binding result [1]	binding signal [2]
HEX-parS consensus (dsDNA) DNA 1: GAGGCTTGTTCCACGTGGAACGTCGG DNA 2: CCGACGTTCCACGTGGAACAAGCCTC	binds	
HEX-parSmut (dsDNA) DNA 1: GAGGCTTGCCCCACGTGGAACGTCGG DNA 2: CCGACGTTCCACGTGGGGCAAGCCTC		~10 fold reduced affinity vs N1
